Test results taken from article doi:10.1101/2021.05.27.445985.

Target: Cy5-labeled human neutrophil peptide 1 (HNP1) (human)
Assay: fluorescence polarisation

## Recombinant SARS-CoV-2 Spike glycoprotein (from UniProt P0DTC2) (natural protein)
  Kd: 146 nM
